This data set deals with the molecule itself. Nature of the data set: BASIL (Bead Assay of Interacting Ligands); biotinylated oligonucleotide with a single NANOG site on streptavidin beads, incubated with rNANOG at 1mg/ml for 1 hour, washed, then with fluorescein amidite labelled oligonucleotide of the same sequence; fluorescence on the bead only if NANOG is a multimer.

B1: Recombinant full length NANOG, purified and refolded (natural protein, mouse, UniProt Q80Z64 1-305, looked up)
chain: MSVGLPGPHSLPSSEEASNSGNASSMPAVFHPENYSCLQGSATEMLCTEAASPRPSSEDLPLQGSPDSSTSPKQKLSSPEADKGPEEEENKVLARKQKMRTVFSQAQLCALKDRFQKQKYLSLQQMQELSSILNLSYKQVKTWFQNQRMKCKRWQKNQWLKTSNGLIQKGSAPVEYPSIHCSYPQGYLVNASGSLSMWGSQTWTNPTWSSQTWTNPTWNNQTWTNPTWSSQAWTAQSWNGQPWNAAPLHNFGEDFLQPYVQLQQNFSASDLEVNLEATRESHAHFSTPQALELFLNYSVTPPGEI
notes: NANOG, mouse, full length; Forms multimers by the BASIL assay; the size of the oligomer is not measured here; also called purified NANOG; rNANOG
Regarding B1, the binding result is “binds”.

The record behind these values is doi:10.1101/2025.11.27.690710, “Direct recruitment of RNA Polymerase II by NANOG to activated target genes” (bioRxiv, 2025).
